# Reference: the supplement of paper PMC7877785
# ± gives the uncertainty stated by the source.
# Assay: self-splicing fitness, log relative to wild type (ln ratio); higher = more splicing; Tetrahymena group I intron in knt gene, E. coli kanamycin selection, DiMSum; sequences stand for … in CUCUCU…GGAGGGAAAAGUUAUCAGGCAUGCACCUGGUAGCUAGUCUUUAAACCAAUAGAUUGCAUCGGUUUAAAAGGCAAGACCGUCAAAUUGCGGGAAAGGGGUCAACAGCCGUUCAGUACCAAGUCUCAGGGGAAACUUUGAGAUGGCCUUGCAAAGGGUAUGGUAAUAAGCUGACGGACAUGGUCCUAACCACGCAGCCAAGUCCUAAGUCAACAGAUCUUCUGUUGAUAUGGAUGCAGUUCACAGACUAAAUGUCGGUCGGGGAAGAUGUAUUCUUCUCAUAAGAUAUAGUCGGACCUCUCCUUAAUGGGAGCUAGCGGAUGAAGUGAUGCAACACUGGAGCCGCUGGGAACUAAUUUGUAUGCGAAAGUAUAUUGAUUAGUUUUGGAGUACUCGUGGUCG
# How it was run: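 Colonies from six replicate transformations of E. coli BL21(DE3) were pooled and amplicon-sequenced on an Illumina HiSeq 2500. The library placed an intron with all eight P1ex-region nucleotides randomised inside the knt kanamycin-resistance gene on pET-22b(+), and cells grew overnight at 37°C or 30°C on LB agar with or without 25 μg/mL kanamycin (plus 100 μg/mL carbenicillin, 50 μM IPTG, 0.2% rhamnose). Fitness is the DiMSum error-weighted combination of wild-type-normalised replicate fold changes, kanamycin versus none.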
Sequence,self-splicing fitness (ln) (30 °C),self-splicing fitness (ln) (37 °C)
UAAAAGCAAUAUUACGCUUG,-1.9 ± 0.12,-0.981 ± 0.14
UAAAAGCAAUAUUACGCUUU,-3.78 ± 0.23,-2.52 ± 0.3
UAAAAGCAAUAUUACGGAAC,-3.24 ± 0.27,-2.68 ± 0.4
UAAAAGCAAUAUUACGGACC,-1.44 ± 0.2,-1.46 ± 0.29
UAAAAGCAAUAUUACGGCAC,-1.64 ± 0.14,-1.13 ± 0.2
UAAAAGCAAUAUUACGGUGA,-1.15 ± 0.077,-0.788 ± 0.076
UAAAAGCAAUAUUACGGUGG,-2.08 ± 0.088,-1.43 ± 0.089
UAAAAGCAAUAUUACGGUUU,-2.78 ± 0.095,-0.178 ± 0.091
UAAAAGCAAUAUUACGUAAU,-2.6 ± 0.12,-1.08 ± 0.13
UAAAAGCAAUAUUACGUGCA,-0.586 ± 0.067,-0.196 ± 0.079
UAAAAGCAAUAUUACGUGUU,-4.13 ± 0.15,-2.63 ± 0.14
UAAAAGCAAUAUUACGUUAA,-2.14 ± 0.15,-1.38 ± 0.13
UAACAGCAAUAUUACGAAAG,-1.44 ± 0.14,-1.76 ± 0.21
UAACAGCAAUAUUACGAAGU,-3.97 ± 0.17,-3.18 ± 0.16
UAACAGCAAUAUUACGACCC,-2.15 ± 0.18,-1.42 ± 0.19
UAACAGCAAUAUUACGACCU,-0.404 ± 0.098,0.106 ± 0.11
UAACAGCAAUAUUACGACUU,-0.586 ± 0.084,0.316 ± 0.11
UAACAGCAAUAUUACGAGCU,-3.71 ± 0.12,-2.37 ± 0.11
UAACAGCAAUAUUACGAGUU,-2.87 ± 0.11,-1.8 ± 0.12
UAACAGCAAUAUUACGAUAC,-2.65 ± 0.39,-2.7 ± 0.48
UAACAGCAAUAUUACGAUUU,-1.47 ± 0.056,-0.218 ± 0.065
UAACAGCAAUAUUACGCAUU,-2.59 ± 0.12,-0.539 ± 0.096
UAACAGCAAUAUUACGCGCG,-0.332 ± 0.064,-0.361 ± 0.078
UAACAGCAAUAUUACGCUAC,-3.37 ± 0.15,-2.24 ± 0.2
UAACAGCAAUAUUACGCUCG,-0.803 ± 0.096,-0.212 ± 0.098

Sequence,self-splicing fitness (ln) (30 °C),self-splicing fitness (ln) (37 °C)
UAACAGCAAUAUUACGGAGU,-3.7 ± 0.17,-1.41 ± 0.12
UAACAGCAAUAUUACGGAUC,-3.92 ± 0.22,-2.17 ± 0.15
UAACAGCAAUAUUACGGCCA,-0.28 ± 0.066,-0.439 ± 0.071
UAACAGCAAUAUUACGGCUU,-0.716 ± 0.082,-0.0863 ± 0.1
UAACAGCAAUAUUACGGUGC,-3.42 ± 0.23,-2.86 ± 0.2
UAACAGCAAUAUUACGGUUG,-0.966 ± 0.043,-1.04 ± 0.064
UAACAGCAAUAUUACGGUUU,-1.14 ± 0.05,-0.621 ± 0.063
UAACAGCAAUAUUACGUAAU,-3.27 ± 0.14,-2.23 ± 0.14
UAACAGCAAUAUUACGUAGC,-3.86 ± 0.17,-2.02 ± 0.11
UAACAGCAAUAUUACGUGCC,-3.5 ± 0.22,-1.9 ± 0.15
UAACAGCAAUAUUACGUUCG,-0.514 ± 0.057,0.266 ± 0.073
UAACAGCAAUAUUACGUUCU,-1.17 ± 0.08,-0.668 ± 0.079
UAAGAGCAAUAUUACGACGA,-1.72 ± 0.19,-1.61 ± 0.21
UAAGAGCAAUAUUACGACGU,-2.32 ± 0.33,-1.88 ± 0.39
UAAGAGCAAUAUUACGAUCC,-1.81 ± 0.36,
UAAGAGCAAUAUUACGAUCG,-3.62 ± 0.17,-1.53 ± 0.18
UAAGAGCAAUAUUACGAUUC,,-0.537 ± 0.43
UAAGAGCAAUAUUACGCGCG,-1.38 ± 0.24,-1.35 ± 0.3
UAAGAGCAAUAUUACGCUGA,,-1.15 ± 0.29
UAAGAGCAAUAUUACGCUGC,,-1.15 ± 0.37
UAAGAGCAAUAUUACGCUGU,-3.35 ± 0.45,-2.22 ± 0.34
UAAGAGCAAUAUUACGGAGC,-3.44 ± 0.4,
UAAGAGCAAUAUUACGGAGU,-3.26 ± 0.23,-2.21 ± 0.25
UAAGAGCAAUAUUACGGAUA,-2.84 ± 0.44,-1.54 ± 0.4
UAAGAGCAAUAUUACGUAAA,-3.2 ± 0.37,-1.89 ± 0.33

Sequence,self-splicing fitness (ln) (30 °C),self-splicing fitness (ln) (37 °C)
UAAGAGCAAUAUUACGUCCA,-3.08 ± 0.34,-2.4 ± 0.41
UAAGAGCAAUAUUACGUCUU,-3.28 ± 0.2,-1.49 ± 0.18
UAAGAGCAAUAUUACGUGAC,-3.63 ± 0.27,-2.8 ± 0.34
UAAGAGCAAUAUUACGUGCU,-4.59 ± 0.31,-2.09 ± 0.27
UAAGAGCAAUAUUACGUGGC,-4.44 ± 0.27,-2.2 ± 0.2
UAAGAGCAAUAUUACGUGUA,-2.36 ± 0.36,-2.21 ± 0.27
UAAGAGCAAUAUUACGUUAG,-3.43 ± 0.24,-3.1 ± 0.27
UAAGAGCAAUAUUACGUUUA,-2.31 ± 0.12,-1.36 ± 0.13
UAAUAGCAAUAUUACGAAAA,-2.83 ± 0.26,-1.59 ± 0.15
UAAUAGCAAUAUUACGAACA,-1.07 ± 0.14,-0.685 ± 0.13
UAAUAGCAAUAUUACGAAGA,,-2.76 ± 0.31
UAAUAGCAAUAUUACGAAGG,-3.08 ± 0.17,-1.6 ± 0.17
UAAUAGCAAUAUUACGAAUG,-1.37 ± 0.11,-0.382 ± 0.11
UAAUAGCAAUAUUACGACUA,-0.456 ± 0.11,-0.0379 ± 0.13
UAAUAGCAAUAUUACGAGAA,,-1.22 ± 0.26
UAAUAGCAAUAUUACGAUCC,-3.33 ± 0.44,
UAAUAGCAAUAUUACGAUCU,-1.4 ± 0.098,-0.601 ± 0.12
UAAUAGCAAUAUUACGAUUG,0.193 ± 0.068,0.0133 ± 0.076
UAAUAGCAAUAUUACGCAAG,-1.92 ± 0.29,-1.04 ± 0.25
UAAUAGCAAUAUUACGCCCG,,0.42 ± 0.42
UAAUAGCAAUAUUACGCCUA,-0.175 ± 0.16,0.0899 ± 0.19
UAAUAGCAAUAUUACGCGAA,-3.51 ± 0.24,-0.873 ± 0.14
UAAUAGCAAUAUUACGCGCC,-2.47 ± 0.34,-1.39 ± 0.41
UAAUAGCAAUAUUACGCUCC,-1.74 ± 0.39,-0.899 ± 0.32
UAAUAGCAAUAUUACGGAGU,-4.07 ± 0.27,-2.82 ± 0.22

Sequence,self-splicing fitness (ln) (30 °C),self-splicing fitness (ln) (37 °C)
UAAUAGCAAUAUUACGGCCG,-0.212 ± 0.12,0.0754 ± 0.16
UAAUAGCAAUAUUACGGCUA,0.00533 ± 0.088,0.527 ± 0.094
UAAUAGCAAUAUUACGGCUG,-0.00933 ± 0.11,-0.0273 ± 0.16
UAAUAGCAAUAUUACGGGAG,-2.84 ± 0.17,-3.3 ± 0.22
UAAUAGCAAUAUUACGGGUU,-3.33 ± 0.24,-2.65 ± 0.21
UAAUAGCAAUAUUACGGUAG,-3.43 ± 0.14,-2.05 ± 0.14
UAAUAGCAAUAUUACGGUUG,-0.0942 ± 0.085,-0.0839 ± 0.091
UAAUAGCAAUAUUACGUACU,-1.91 ± 0.094,-0.805 ± 0.088
UAAUAGCAAUAUUACGUUCG,-0.563 ± 0.11,0.133 ± 0.12
UACAAGCAAUAUUACGAAAC,,-1.61 ± 0.32
UACAAGCAAUAUUACGAAUU,-2.48 ± 0.16,-2.99 ± 0.26
UACAAGCAAUAUUACGAGGG,-2.8 ± 0.14,-1.47 ± 0.14
UACAAGCAAUAUUACGAUAC,-3.7 ± 0.44,-2.34 ± 0.25
UACAAGCAAUAUUACGCAUA,-2.07 ± 0.11,-0.871 ± 0.11
UACAAGCAAUAUUACGCCAC,-2.95 ± 0.27,
UACAAGCAAUAUUACGCGGA,-1.85 ± 0.092,-1.21 ± 0.098
UACAAGCAAUAUUACGCGGC,-3.59 ± 0.24,-2.91 ± 0.31
UACAAGCAAUAUUACGCUAC,-3.76 ± 0.29,-2.26 ± 0.21
UACAAGCAAUAUUACGCUCU,-1.36 ± 0.087,-0.0585 ± 0.11
UACAAGCAAUAUUACGGACA,-0.516 ± 0.087,0.0805 ± 0.083
UACAAGCAAUAUUACGGACG,-0.321 ± 0.075,0.44 ± 0.097
UACAAGCAAUAUUACGGACU,-1.22 ± 0.079,-0.00357 ± 0.085
UACAAGCAAUAUUACGGGUG,-0.523 ± 0.04,-0.55 ± 0.054
